Laboratory results as given in the supplement of paper PMC9112550, “Optimization of the antimicrobial peptide Bac7 by deep mutational scanning” (BMC Biology, 2022).

Test system: Escherichia coli TOP10
Experiment: shrunken log2 fold change of peptide-encoding DNA abundance (4.5 h post-induction vs induction); higher = less antimicrobial activity (less host growth inhibition)
Conditions: time post-induction: 4.5 h; library: site-saturation at positions 5, 18, 19, 20
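Note: peptides expressed intracellularly from a pBAD plasmid library in pooled LB shake-flask culture, induced with 0.3% L-arabinose, DNA abundance read by NGS, three biological replicates, DESeq2 with apeglm shrinkage.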

Sequence | shrunken log2 fold change
RRIRRRPPRLPRPRPRPCLEPRP | 0.11
RRIRGRPPRLPRPRPRPSPNPRP | 0.244
RRIRGRPPRLPRPRPRPIYKPRP | -0.071
RRIRHRPPRLPRPRPRPQGGPRP | -0.0982
RRIRKRPPRLPRPRPRPWNDPRP | 0.0299
RRIRQRPPRLPRPRPRPNCPPRP | 0.0556
RRIRMRPPRLPRPRPRPPMQPRP | 0.504
RRIRRRPPRLPRPRPRPDDLPRP | -0.128
RRIRPRPPRLPRPRPRPSTKPRP | -0.0696
RRIRCRPPRLPRPRPRPSTWPRP | -0.0554
RRIRMRPPRLPRPRPRPRPQPRP | 1.13
RRIRHRPPRLPRPRPRPVFDPRP | -0.0994
RRIRKRPPRLPRPRPRPPIHPRP | 0.327
RRIRMRPPRLPRPRPRPSNPPRP | 0.155
RRIRKRPPRLPRPRPRPWIMPRP | -0.132
RRIRCRPPRLPRPRPRPTAVPRP | 0.393
RRIRQRPPRLPRPRPRPFCCPRP | -0.114
RRIRKRPPRLPRPRPRPTCEPRP | 0.793
RRIRQRPPRLPRPRPRPAWTPRP | -0.177
RRIRKRPPRLPRPRPRPHITPRP | -0.167
RRIRDRPPRLPRPRPRPHTAPRP | -0.0443
RRIRIRPPRLPRPRPRPFDWPRP | 0.305
RRIRVRPPRLPRPRPRPQLWPRP | 0.0627
RRIRRRPPRLPRPRPRPCDYPRP | -0.489
RRIRPRPPRLPRPRPRPYWRPRP | -0.106

Sequence | shrunken log2 fold change
RRIRARPPRLPRPRPRPHFHPRP | -0.197
RRIRTRPPRLPRPRPRPTCQPRP | 0.234
RRIRERPPRLPRPRPRPLHWPRP | 0.0186
RRIRNRPPRLPRPRPRPEGLPRP | 0.364
RRIRMRPPRLPRPRPRPVRVPRP | 1.74
RRIRKRPPRLPRPRPRPRKDPRP | 0.222
RRIRTRPPRLPRPRPRPVEQPRP | 0.112
RRIRVRPPRLPRPRPRPLQDPRP | -0.104
RRIRHRPPRLPRPRPRPHRCPRP | 0.0171
RRIRIRPPRLPRPRPRPQSVPRP | -0.295
RRIRKRPPRLPRPRPRPQKHPRP | 0.224
RRIRMRPPRLPRPRPRPDFHPRP | -0.129
RRIRNRPPRLPRPRPRPPASPRP | 0.486
RRIRCRPPRLPRPRPRPEWSPRP | 0.144
RRIRSRPPRLPRPRPRPPRAPRP | 0.567
RRIRMRPPRLPRPRPRPYPTPRP | -0.114
RRIRIRPPRLPRPRPRPLPKPRP | 0.263
RRIRGRPPRLPRPRPRPDNGPRP | -0.0263
RRIRDRPPRLPRPRPRPCTCPRP | -0.198
RRIRPRPPRLPRPRPRPGIKPRP | -0.0194
RRIRPRPPRLPRPRPRPRFKPRP | 0.166
RRIRRRPPRLPRPRPRPGCDPRP | 0.456
RRIRDRPPRLPRPRPRPKMGPRP | -0.0622
RRIRNRPPRLPRPRPRPFGMPRP | 0.0298
RRIRQRPPRLPRPRPRPEHTPRP | -0.0628

Sequence | shrunken log2 fold change
RRIRPRPPRLPRPRPRPSPIPRP | 0.335
RRIRQRPPRLPRPRPRPYCYPRP | -0.198
RRIRRRPPRLPRPRPRPSNHPRP | -0.396
RRIRSRPPRLPRPRPRPGNIPRP | -0.281
RRIRYRPPRLPRPRPRPSTKPRP | -0.225
RRIRMRPPRLPRPRPRPQKSPRP | 0.167
RRIRIRPPRLPRPRPRPTQEPRP | 0.0113
RRIRFRPPRLPRPRPRPWFRPRP | -0.151
RRIRIRPPRLPRPRPRPWFSPRP | -0.201
RRIRDRPPRLPRPRPRPFEVPRP | -0.0211
RRIRYRPPRLPRPRPRPRIVPRP | -0.369
RRIRWRPPRLPRPRPRPQAMPRP | 0.179
RRIRRRPPRLPRPRPRPTCLPRP | 0.099
RRIRERPPRLPRPRPRPHNVPRP | -0.42
RRIRRRPPRLPRPRPRPCNFPRP | -0.0159
RRIRVRPPRLPRPRPRPMMAPRP | -0.12
RRIRLRPPRLPRPRPRPDSEPRP | 0.482
RRIRYRPPRLPRPRPRPYFEPRP | -0.58
RRIRGRPPRLPRPRPRPFRDPRP | 0.0814
RRIRSRPPRLPRPRPRPHTHPRP | -0.419
RRIRWRPPRLPRPRPRPPANPRP | 0.629
RRIRFRPPRLPRPRPRPSLGPRP | 0.0257
RRIRVRPPRLPRPRPRPCLSPRP | -0.153
RRIRGRPPRLPRPRPRPRTNPRP | 0.588
RRIRVRPPRLPRPRPRPYLTPRP | -0.575

Sequence | shrunken log2 fold change
RRIRLRPPRLPRPRPRPHSHPRP | 1.65
RRIRRRPPRLPRPRPRPDMKPRP | -0.124
RRIRYRPPRLPRPRPRPMYEPRP | -0.101
RRIRWRPPRLPRPRPRPPICPRP | -0.0702
RRIRSRPPRLPRPRPRPTYEPRP | -0.328
RRIRCRPPRLPRPRPRPPVQPRP | 0.652
RRIRCRPPRLPRPRPRPEASPRP | 0.14
RRIRNRPPRLPRPRPRPSFEPRP | -0.0494
RRIRVRPPRLPRPRPRPAPMPRP | 0.324
RRIRQRPPRLPRPRPRPGLFPRP | -0.176
RRIRDRPPRLPRPRPRPPRLPRP | 0.144
RRIRSRPPRLPRPRPRPGSSPRP | -0.168
RRIRPRPPRLPRPRPRPQVHPRP | -0.0018
RRIRARPPRLPRPRPRPFRCPRP | -0.0823
RRIRNRPPRLPRPRPRPATMPRP | -0.1
RRIRWRPPRLPRPRPRPILWPRP | 0.117
RRIRVRPPRLPRPRPRPTGAPRP | 0.47
RRIRGRPPRLPRPRPRPYDDPRP | -0.199
RRIRFRPPRLPRPRPRPVISPRP | -0.674
RRIRSRPPRLPRPRPRPAFYPRP | -0.166
RRIRCRPPRLPRPRPRPDIRPRP | 0.121
RRIRTRPPRLPRPRPRPVYFPRP | -0.558
RRIRERPPRLPRPRPRPWGYPRP | -0.279
RRIRERPPRLPRPRPRPLYPPRP | -0.458
RRIRMRPPRLPRPRPRPHNSPRP | -0.171

Sequence | shrunken log2 fold change
RRIRMRPPRLPRPRPRPTRGPRP | 1.57
RRIRSRPPRLPRPRPRPHMMPRP | -0.113
RRIRNRPPRLPRPRPRPILKPRP | 0.0926
RRIRMRPPRLPRPRPRPQLDPRP | 0.277
RRIRYRPPRLPRPRPRPQQDPRP | -0.0899
RRIRRRPPRLPRPRPRPSHIPRP | -0.0708
RRIRKRPPRLPRPRPRPMTSPRP | 0.0716
RRIRNRPPRLPRPRPRPYRFPRP | -0.00669
RRIRARPPRLPRPRPRPFCGPRP | -0.0184
RRIRMRPPRLPRPRPRPHYPPRP | -0.303
RRIRIRPPRLPRPRPRPSADPRP | -0.235
RRIRLRPPRLPRPRPRPNFPPRP | -0.00674
RRIRWRPPRLPRPRPRPMTVPRP | -0.0472
RRIRCRPPRLPRPRPRPWSLPRP | -1.5
RRIRFRPPRLPRPRPRPATLPRP | -0.159
RRIRWRPPRLPRPRPRPSENPRP | -0.134
RRIRYRPPRLPRPRPRPRRPPRP | -0.0739
RRIRCRPPRLPRPRPRPFMKPRP | -0.696
RRIRMRPPRLPRPRPRPMSLPRP | -0.207
RRIRARPPRLPRPRPRPTTPPRP | 0.605
RRIRHRPPRLPRPRPRPLKFPRP | -0.298
RRIRARPPRLPRPRPRPSIIPRP | -0.254
RRIRLRPPRLPRPRPRPEKDPRP | 0.191
RRIRNRPPRLPRPRPRPKYMPRP | -0.854
RRIRCRPPRLPRPRPRPQMRPRP | 0.611
